Test results from PMC8857485, “Prostate secretory protein 94 inhibits sterol binding and export by the mammalian CAP protein CRISP2 in a calcium-sensitive manner” (The Journal of Biological Chemistry, 2022).
Changes are numbered by the printed parent chain. In names and notes the source's numbering stands. Like-named read-outs stand apart in the source and are kept apart here.

Tests used:
[1] = target: cholesterol sulfate; test: microscale thermophoresis; conditions: measurements in triplicates
[2] = target: T1, prostate secretory protein of 94 amino acids (PSP94), C-terminal polyhistidine tag (human, UniProt P08118 21-114); test: MST
T1 chain: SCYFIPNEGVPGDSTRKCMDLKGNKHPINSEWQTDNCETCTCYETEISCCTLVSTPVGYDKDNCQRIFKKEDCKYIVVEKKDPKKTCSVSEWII

[3] = target: T1, prostate secretory protein of 94 amino …; test: MST
[4] = tested on: sterol export by CAP proteins (Pry1, CRISP2, CRISP3); test: In vivo sterol export assay ([14C]cholesteryl acetate export) in yeast; assay type: cell-based, Saccharomyces cerevisiae; conditions: co-expression with CRISP2 in quadruple mutant yeast
Excerpt: To test whether expression of PSP94 would affect the function of Pry1 in sterol export, we expressed PSP94 fused to the N-terminal signal sequence from Pry1 (amino acids 1–19) from a constitutive alcohol dehydrogenase promoter (ADH1) to direct the protein into the yeast secretory pathway. This PSP94-containing plasmid was then transformed into heme-deficient yeast cells lacking the sterol deacetylase Say1 (hem1Δ say1Δ). This strain is able to take up radiolabeled [^14C]cholesterol, acetylate it in an alcohol acetyltransferase 2 (Atf2)-dependent pathway, and secrete the resulting radiolabeled cholesteryl acetate back into the culture medium ([29]). […] To test whether expression of PSP94 would affect the synthesis or secretion of Pry1, CRISP2, or CRISP3, we coexpressed FLAG-tagged PSP94 with hemagglutinin (HA)-tagged Pry1, CRISP2, or CRISP3, separated yeast cells from the culture medium, precipitated proteins from both fractions with trichloroacetic acid (TCA), and detected the tagged proteins by Western blotting.
The sterol export assay was performed as described ([29]). […] Extracted radiolabeled lipids were quantified by scintillation counting, and volumes corresponding to 10,000 cpm (counts per minute) were dried. […] TLC plates were then exposed to phosphorimager screens, and radiolabeled lipids were visualized and quantified using a phosphorimager. […]

[5] = cholesterol sulfate titrated (x axis Cholesterol sulfate [µM])

Question: Which results are given for “CRISP2 (cysteine-rich secretory protein 2), C-terminal polyhistidine tag (from UniProt P16562) L98G; Y99P”?
Answer: Kd ([1]; in the presence of PSP94): 0.5 µM; Kd [1, 5]: 2.2 µM

Question: “CRISP2 (cysteine-rich secretory protein 2), C-terminal polyhistidine tag (from UniProt P16562) N97P; Y99P” was tested. Which Kd [1, 5] did it give?
Answer: The Kd was 2.7 µM.

Question: With “CRISP2 (cysteine-rich secretory protein 2), C-terminal polyhistidine tag (from UniProt P16562) N97P; L98G” as the molecule, how does the Kd [1, 5] read?
Answer: The Kd was 3.8 µM.

B1: CAP domain of Pry1 (Pry1^CAP), C-terminal polyhistidine tag (domain or fragment)
chain: SASSSDSDLSDFASSVLAEHNKKRALHKDTPALSWSDTLASYAQDYADNYDCSGTLTHSGGPYGENLALGYDGPAAVDAWYNEISNYDFSNPGFSSNTGHFTQVVWKSTTQVGCGIKTCGGAWGDYVICSYDPAGNYEGEYADNVEPLA
modifications: RED-tris-NTA fluorescent label on the His tag
Question: B1 was tested. Which Kd [2] did it give?
Answer: Its Kd is 63 nM.

B2: CRISP3 (cysteine-rich secretory protein 3), C-terminal polyhistidine tag (natural protein)
chain: NEDKDPAFTALLTTQTQVQREIVNKHNELRRAVSPPARNMLKMEWNKEAAANAQKWANQCNYRHSNPKDRMTSLKCGENLYMSSASSSWSQAIQSWFDEYNDFDFGVGPKTPNAVVGHYTQVVWYSSYLVGCGNAYCPNQKVLKYYYVCQYCPAGNWANRLYVPYEQGAPCASCPDNCDDGLCTNGCKYEDLYSNCKSLKLTLTCKHQLVRDSCKASCNCSNSIY
modifications: RED-tris-NTA fluorescent label on the His tag
Question: For B2, which Kd [2] is on record?
Answer: Its Kd is 46 nM.

B3: CRISP2 N97P L98G (protein)
chain: KDPAFTALLTTQLQVQREIVNKHNELRKAVSPPASNMLKMEWSREVTTNAQRWANKCTLQHSDPEDRKTSTRCGEPGYMSSDPTSWSSAIQSWYDEILDFVYGVGPKSPNAVVGHYTQLVWYSTYQVGCGIAYCPNQDSLKYYYVCQYCPAGNNMNRKNTPYQQGTPCAGCPDDCDKGLCTNSCQYQDLLSNCDSLKNTAGCEHELLKEKCKATCLCENKIY
modifications: limits not printed: mature chain by convention (pelB secretion in E. coli, C-terminal His tag left out); residue numbers match the precursor
Question: How did the Kd [3] turn out when B3 was run?
Answer: Its Kd is 4 nM.

B4: PSP94^F24G: point mutant version of PSP94 (F24 corresponds to F4 in the processed protein), impaired binding to CRISP3 (protein)
chain: T1 chain with F4G
modifications: left off: polyhistidine, C-terminal, state not stated
Question: B4 was tested. Which “effect on sterol binding and export by CRISP2 in vivo” value [4] did it give?
Answer: The value was “did not inhibit sterol binding and export”.
